Measurements reported in article PMC5861098.

Biological target: S. pombe Dcp2(1–243) (S. pombe) (UniProt O13828)
UniProt O13828, sequence (O13828 1-243): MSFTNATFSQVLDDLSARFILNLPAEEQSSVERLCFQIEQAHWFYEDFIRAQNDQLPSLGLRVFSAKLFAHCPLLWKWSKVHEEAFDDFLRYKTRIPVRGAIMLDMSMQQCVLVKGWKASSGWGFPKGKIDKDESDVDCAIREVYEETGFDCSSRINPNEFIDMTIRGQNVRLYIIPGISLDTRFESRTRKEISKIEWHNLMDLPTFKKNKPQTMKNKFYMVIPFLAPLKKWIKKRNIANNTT

- kmax of single-turnover in vitro decapping of a capped 29-mer RNA by Sp Dcp1–Dcp2(1–243) (m7 in complex with m6), with and without Edc1(155–180) peptide (50 µM): 10 fold
Substance: Sp Edc1 (155–180) peptide
